{"source": "patent US20050221488", "system": "Spo11 (Saccharomyces cerevisiae)", "assay": "cell_activity", "settings": "wild-type Spo11 without Gal4BD; DSBs barely detectable", "data": [{"substance": "GAL2 promoter UASGAL sites", "values": [{"measurement": "activity (% DSB frequency)", "value": "< 0.6"}]}]}
